Holding throughout (assay): SPR
For orientation: SPR reads the build-up and loss of mass on a sensor chip optically.

Assay [1] concerns the target T1, WT SARS-CoV-2 S RBD protein (SARS-CoV-2, UniProt P0DTC2).
Assay [2] deals with T1, WT SARS-CoV-2 S RBD protein. This is another data set of the same source.
In the next assay the target is SARS-CoV-2 S protein (SARS-CoV-2, UniProt P0DTC2).

This is an account of results in paper PMC8843702 (2022).

B1: P5-22 (antibody, V domains shown)
VH: EVQLVESGGGLVKPGGSLRLSCAASGFTFRDYDIIWIRQAPGKGLEWVSYISRSGSTIYYSDSVRGRFTISRDNAKNSVYLQMNSLRAEDTAVYYCARDFGFEGPRMDVWGQGTTVTVSS
VL: DIQMTQSPSSLSASVGDRVTITCQASQDIKNYLNWYQQKPGKAPKLLIYDASNLETGVPSRFSGSGSGTDFTFTISSLQPEDIATYYCQQFDNLPITFGQGTRLEIK
In the case of B1, in assay [1], the off-rate constant (koff) – broadly, the rate constant with which the complex falls apart – is less than 1e-05 s⁻¹. Also, the dissociation constant (Kd) (commonly the constant that tells how readily two partners part at equilibrium) was less than 4.59 pM in assay [2] and less than 3.34 pM with SARS-CoV-2 S protein.

B2: polymeric P5-22 (antibody, V domains shown)
VH: EVQLVESGGGLVKPGGSLRLSCAASGFTFRDYDIIWIRQAPGKGLEWVSYISRSGSTIYYSDSVRGRFTISRDNAKNSVYLQMNSLRAEDTAVYYCARDFGFEGPRMDVWGQGTTVTVSS
VL: DIQMTQSPSSLSASVGDRVTITCQASQDIKNYLNWYQQKPGKAPKLLIYDASNLETGVPSRFSGSGSGTDFTFTISSLQPEDIATYYCQQFDNLPITFGQGTRLEIK
Molecule B2 came in with a koff in assay [1] of less than 1e-05 s⁻¹. In addition, the Kd in assay [2] was less than 0.498 pM.
